From patent publication US9889195B2, “Immunogenic composition and uses thereof” (THE UNIVERSITY OF MELBOURNE, priority 2009, dated 2018) come the findings set out here.

A short description of the data set: Overall electrostatic charge of lipopeptide or protein antigen. In kind it is physicochemical.

hen egg lysozyme [HEL]: the overall charge result is “+8”.

B1: ovalbumin (protein, UniProt P01012 2-386, looked up)
Ovalbumin: GSIGAASMEFCFDVFKELKVHHANENIFYCPIAIMSALAMVYLGAKDSTRTQINKVVRFDKLPGFGDSIEAQCGTSVNVHSSLRDILNQITKPNDVYSFSLASRLYAEERYPILPEYLQCVKELYRGGLEPINFQTAADQARELINSWVESQTNGIIRNVLQPSSVDSQTAMVLVNAIVFKGLWEKAFKDEDTQAMPFRVTEQESKPVQMMYQIGLFRVASMASEKMKILELPFASGTMSMLVLLPDEVSGLEQLESIINFEKLTEWTSSNVMEERKIKVYLPRMKMEEKYNLTSVLMAMGITDVFSSSANLSGISSAESLKISQAVHAAHAEINEAGREVVGSAEAGVDAASVSEEFRADHPFLFCIKHIATNAVLFFGRCVSP
notes: model protein antigen (Sigma Aldrich)
As to B1, the overall negative charge was 11.
